US20240182592A1 (CHIA TAI TIANQING PHARMACEUTICAL GROUP, published 2024)

What was measured:
[1] = target: T1, human BCMA-His (ACRO, product catalog No. BCA-H522y) (human, UniProt Q02223 1-54, biotin-conjugated in the ELISAs of Examples 5 and 6.1 (site not stated)); assay: competition ELISA (chessboard), biotin-BCMA-His; competitor: 1A11-Fc
T1 construct: Bought protein; also called BCMA-His protein; biotin-conjugated recombinant BCMA-His protein; not shown: His tag
T1 sequence (looked up): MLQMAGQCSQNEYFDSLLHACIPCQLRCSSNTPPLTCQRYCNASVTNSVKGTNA
Protocol: (§1) The anti-human BCMA VHH-Fc chimeric antibodies were diluted to 2 μg/mL and allowed to coat a high-adsorption microplate. The plate was washed and then blocked. […] According to a chessboard arrangement, the incubated mixtures of antigen and antibody or the biotin-conjugated BCMA-His protein alone (control group) were added in sequence to the well plate at 100 μL/well. The plate was incubated at 37° C. for 1 h. The plate was washed to remove unbound biotin-conjugated recombinant BCMA-His protein. HRP-conjugated streptavidin (eBioscience, product catalog No. 18-4100-51) was added, and the plate was washed 5 times and then subjected to color development. The light absorption signal values at the wavelength of 450 nm and the reference wavelength of 650 nm were measured. The blocking rate of one antibody for the binding signal of another antibody to BCMA-Bio was calculated according to the formula blocking rate=(signal value of control group−signal value of sample group)/signal value of control group×100%. Positive control groups in which antibodies competed with themselves are shown on the diagonal line “\” of the chessboard (indicated in gray).

[2] = target: T1, human BCMA-His (ACRO, product catalog …); assay: competition ELISA (chessboard), biotin-BCMA-His; competitor: 1A10-Fc
Protocol: as §1

[3] = target: cynomolgus monkey BCMA protein (cynomolgus monkey, UniProt A0A2K5UD97 1-53); assay: SPR (Biacore T200)
[4] = target: T1, human BCMA-His (ACRO, product catalog …); assay: competitive ELISA: antibody blocks binding of biotin-BCMA-His to coated APRIL
Protocol: The plate was incubated at 37° C. for 1 h and then washed to remove unbound biotin-conjugated recombinant BCMA-His protein. HRP-conjugated streptavidin (eBioscience, product catalog No. 18-4100-51) was added, and the plate was washed 5 times and then subjected to color development. The light absorption signal values at the wavelength of 450 nm and the reference wavelength of 650 nm were measured.

human BCMA on cells [5] = target: T2, human BCMA on cells (human, UniProt Q02223 1-184); assay: flow cytometry, U266 cells
T2 construct: whole, on cells; also called CHO-hBCMA cells; U266 cells
T2 sequence (looked up): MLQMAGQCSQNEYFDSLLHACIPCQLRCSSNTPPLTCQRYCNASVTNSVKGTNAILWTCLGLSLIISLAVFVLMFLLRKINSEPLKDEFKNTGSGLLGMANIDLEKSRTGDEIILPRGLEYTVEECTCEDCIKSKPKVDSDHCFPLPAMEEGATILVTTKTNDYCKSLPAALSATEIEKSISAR
From the text: (§2) The binding of the anti-human BCMA VHH-Fc chimeric antibodies to target cells with different BCMA expression levels was detected by flow cytometry. The CHO-hBCMA cells (iCarTab Biotechnology (Suzhou) Co. Ltd., product catalog No. AKD001A) were a stably transfected cell line highly expressing BCMA. The U266 cells (Cell Culture Center, Institute of Basic Medical Sciences, Chinese Academy of Medical Sciences, product catalog No. 3111C0001CCC000684) were a natural human myeloma cell line expressing BCMA at medium levels. The PRMI8226 cells (Cell Culture Center, Institute of Basic Medical Sciences, Chinese Academy of Medical Sciences, product catalog No. 3111C0001CCC000083) were a natural human myeloma cell line expressing BCMA at low levels. The HUVEC cells (ScienCell Research Laboratories, product catalog No. […] 8000) were a human umbilical vein endothelial cell line not expressing BCMA. […] A PE-labeled anti-human IgG Fc antibody (Jackson Immuno Rescarch, product catalog No. 109-116-170) was added, and the mixture was incubated on ice for 0.5 h. The cells were washed and then tested using a flow cytometer (Thermo Fisher Scientific Inc., Attune NXT).

human BAFF-R protein = human BAFF-R protein (human, UniProt Q96RJ3 7-71, limits assumed); assay: SPR (Biacore T200), antibody captured by anti-hIgG (Fc)
Protocol: (§3) The anti-human BCMA VHH-Fc chimeric antibodies were tested for specificity using a biomolecular interaction analysis system (GE, Biacore T200). An anti-hIgG (Fc) antibody (GE, product catalog No. BR-1008-39) was amino-coupled to a CM5 sensor chip. The anti-human BCMA VHH-Fc chimeric antibodies were diluted to 2 μg/mL with a running buffer (137 mM NaCl, 2.7 mM KCl, 10 mM Na₂HPO₄.12H₂O, 1.8 mM KH₂PO₄, 0.05% surfactant P-20 (w/v), pH 7.4), and capture was allowed for 90 s by passing the dilutions through experimental channels at a flow rate of 30 μL/min. Human TACI or BAFF-R protein was diluted to 100 nM with the running buffer, and binding was allowed by passing the dilution at a flow rate of 50 μL/min. The binding signal curve was observed.

human TACI protein = target: T3, human TACI protein (human, UniProt O14836 2-166, limits assumed); assay: as above
T3 sequence (looked up): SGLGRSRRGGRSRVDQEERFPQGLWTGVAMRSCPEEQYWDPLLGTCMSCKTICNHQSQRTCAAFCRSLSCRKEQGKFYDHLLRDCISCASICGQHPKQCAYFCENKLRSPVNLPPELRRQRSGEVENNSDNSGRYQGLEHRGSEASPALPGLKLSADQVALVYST
Protocol: as §3

human BCMA on cells [6] = target: T2, human BCMA on cells; assay: flow cytometry, CHO-hBCMA cells
From the text: as §2

[7] = target: T1, human BCMA-His (ACRO, product catalog …); assay: competition ELISA (chessboard), biotin-BCMA-His; competitor: 1B10-Fc
Protocol: as §1

[8] = target: T1, human BCMA-His (ACRO, product catalog …); assay: competition ELISA (chessboard), biotin-BCMA-His; competitor: 1A1-Fc
Protocol: as §1

human BCMA protein = target: T4, human BCMA protein (human, UniProt Q02223 1-54, limits assumed); assay: SPR (Biacore T200), antibody captured by anti-hIgG, human BCMA as analyte, 1:1 model
T4 construct: also called hBCMA; Antigen BCMA
T4 sequence (looked up): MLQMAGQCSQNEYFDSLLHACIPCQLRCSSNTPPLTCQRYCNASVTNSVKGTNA
Protocol: The affinity of the test antibody for human BCMA protein was determined by Biacore T200 (GE) as follows:
The response signals were detected in real time using Biacore software, and association and dissociation curves were obtained. The buffer used in the experiment was Biacore universal buffer (137 mM NaCl, 2.7 mM KCl, 10 mM Na₂HPO₄.12H₂O, 1.8 mM KH₂PO₄, 0.05% surfactant P-20 (w/v), pH 7.4). […] The flow rate in the flow cell was at 50 μL/min, the association was performed for 240 s, the dissociation was performed for 1400 s, the regeneration was performed using 3 M MgCl₂ (GE) for 60 s, and the baseline was stable. Results were obtained by calculation according to the affinity and kinetics 1:1 binding mode in biacore evaluation software.

[9] = target: T5, cynomolgus monkey BCMA on transiently transfected HEK293T cells (cynomolgus monkey, UniProt Q02223 1-184 (human entry)); assay: flow cytometry, HEK293T cells transiently transfected with cynomolgus monkey BCMA
T5 construct: it may be a nucleotide entry; also called HEK293T-CynoBCMA
From the text: The cells were washed and then tested using a flow cytometer (Thermo Fisher Scientific Inc., Attune NXT).

human BAFF-R protein, sequence (Q96RJ3 7-71 limits assumed): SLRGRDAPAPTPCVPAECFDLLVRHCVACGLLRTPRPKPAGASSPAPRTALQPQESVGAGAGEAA
cynomolgus monkey BCMA protein, sequence (A0A2K5UD97 entry or part of it limits assumed): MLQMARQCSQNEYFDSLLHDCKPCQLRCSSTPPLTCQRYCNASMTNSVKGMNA
T5 sequence (Q02223 other isoform, or with tags, fused parts or gaps): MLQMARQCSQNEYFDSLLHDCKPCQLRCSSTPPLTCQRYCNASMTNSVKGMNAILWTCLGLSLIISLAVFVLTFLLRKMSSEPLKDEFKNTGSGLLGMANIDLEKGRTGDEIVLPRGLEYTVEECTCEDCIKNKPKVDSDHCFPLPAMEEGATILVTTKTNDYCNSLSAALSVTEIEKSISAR

B1: 1A1-Fc (antibody, human IgG1, V domains shown)
VH: QVQLVESGGGSVQAGGSLRLSCTASGYTFRGWNKHWYRQAPGKERELVSSIFRDGKTAYTDSVKGRFTISQDNADATVYLQMNSLKPEDTAMYYCKYDLPGSGLPAFWGQGTLVTVSS
notes: Camel VHH fused to human IgG1 Fc; also called anti-human BCMA VHH-Fc chimeric antibody 1A1-Fc
blocking rate [1]: 99.4% | blocking rate [2]: 7.6% | binding result [3]: no binding | IC50 [4]: 0.34 nM | EC50 (human BCMA on cells [5]): 2.77 nM | binding result (human BAFF-R protein): no binding (tested: 100 nM) | binding result (human TACI protein): no binding (tested: 100 nM) | EC50 (human BCMA on cells [6]): 3.04 nM | blocking rate [7]: 101%

B2: 1B10-Fc (antibody, human IgG1, V domains shown)
VH: EVQLVESGGGSVQAGGSLRLSCTASGYTFRGWNKHWYRQAPGKERELVSSIFRDGKTAYTDSVKGRFTISQDSADATVYLQMNSLKPEDTAMYYCKYDLPGSGLPEFWGQGTLVTVSS
notes: Camel VHH fused to human IgG1 Fc; also called anti-human BCMA VHH-Fc chimeric antibody 1B10-Fc
blocking rate [1]: 99.5% | blocking rate [8]: 100% | blocking rate [2]: 26.7% | binding result [3]: no binding | IC50 [4]: 0.26 nM | EC50 (human BCMA on cells [5]): 1.72 nM | binding result (human BAFF-R protein): no binding (tested: 100 nM) | binding result (human TACI protein): no binding (tested: 100 nM) | EC50 (human BCMA on cells [6]): 2.51 nM

B3: 1A10-Fc (antibody, human IgG1, V domains shown)
VH: QVQLVESGGGSVQAGGSLRLSCAASGYSSNVACMAWYRQAPGKEREWVATIVADFGTTNYAASVKGRFTISQDNAKNTVYLQMNSLKPEDSAMYYCAATQRGGIDWCDEINYWGQGTLVTVSS
notes: also called anti-human BCMA VHH-Fc chimeric antibody 1A10-Fc
blocking rate [1]: 32.6% | blocking rate [8]: 36.9% | IC50 [4]: 0.41 nM | Kd (human BCMA protein): 0.94 nM | EC50 (human BCMA on cells [5]): 4.64 nM | binding result (human BAFF-R protein): no binding (tested: 100 nM) | binding result (human TACI protein): no binding (tested: 100 nM) | EC50 (human BCMA on cells [6]): 4.28 nM | blocking rate [7]: 46.4% | EC50 [9]: 2.02 nM

B4: 1A11-Fc (antibody, human IgG1, V domains shown)
VH: QVQLVESGGGSVQAGGSLRLSCAASGVTFNSACMGWFRQAPGKEREGVARIETGYGGTVYADSVKGRFTISRDNAKNTVYLQMNSLKPEDTAMYYCAAKRSWCTPTWWHELDYNYWGQGTQVTVSS
notes: also called anti-human BCMA VHH-Fc chimeric antibody 1A11-Fc
blocking rate [8]: 101% | blocking rate [2]: 21.6% | IC50 [4]: 0.76 nM | Kd (human BCMA protein): 3.96 nM | EC50 (human BCMA on cells [5]): 1.26 nM | binding result (human BAFF-R protein): no binding (tested: 100 nM) | binding result (human TACI protein): no binding (tested: 100 nM) | EC50 (human BCMA on cells [6]): 2.08 nM | blocking rate [7]: 99.4% | EC50 [9]: 10.4 nM
